For the assay, the target named is GST-Ypt1p (S. cerevisiae) (UniProt P01123). Briefly: pull-down.

Results on one substance are retold here after article PMC2173848.

Where only a bound is given, the exact number is not on record here.

Chain of GST-Ypt1p (S. cerevisiae) (P01123 whole entry): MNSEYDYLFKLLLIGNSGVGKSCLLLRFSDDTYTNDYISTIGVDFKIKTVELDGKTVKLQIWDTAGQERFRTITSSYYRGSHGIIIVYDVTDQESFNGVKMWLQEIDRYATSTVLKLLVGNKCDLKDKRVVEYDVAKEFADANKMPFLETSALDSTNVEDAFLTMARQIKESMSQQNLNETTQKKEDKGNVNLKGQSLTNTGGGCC

In turn, “purified Sec34/35 complex, P40094 1-801; P53271 1-262; Q06096 1-861; P53079 1-417; P53959 1-839” yielded a fold less binding than with GTP-loaded GST-Ypt1p of more than 5 fold and a percent of the complex bound of more than 50%.
